In patent US20250011363A1, “OPTIMIZED SHORTENED PEPTIDE THAT BINDS TO ACETYLCHOLINE RECEPTOR, AND USE THEREOF” (SKINMED CO., LTD., priority 2021, published 2025):

biological target: acetylcholine receptor (Homo sapiens, UniProt P02708); test: SPR binding affinity (RU) of optimized 5mer/6mer/7mer peptides, Examples 6-7; conditions: SPR, Resonance Units; peptides tested at 10 μM; 6mer-2 Bottom sequence
How it was run: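 Synthetic 5mer and 6mer peptides, built from frequent or infrequent amino-acid combinations, were tested at 10 μM for binding to the human acetylcholine receptor by surface plasmon resonance. Binding is reported in response units (RU).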

Sequence of acetylcholine receptor (P02708 21-457): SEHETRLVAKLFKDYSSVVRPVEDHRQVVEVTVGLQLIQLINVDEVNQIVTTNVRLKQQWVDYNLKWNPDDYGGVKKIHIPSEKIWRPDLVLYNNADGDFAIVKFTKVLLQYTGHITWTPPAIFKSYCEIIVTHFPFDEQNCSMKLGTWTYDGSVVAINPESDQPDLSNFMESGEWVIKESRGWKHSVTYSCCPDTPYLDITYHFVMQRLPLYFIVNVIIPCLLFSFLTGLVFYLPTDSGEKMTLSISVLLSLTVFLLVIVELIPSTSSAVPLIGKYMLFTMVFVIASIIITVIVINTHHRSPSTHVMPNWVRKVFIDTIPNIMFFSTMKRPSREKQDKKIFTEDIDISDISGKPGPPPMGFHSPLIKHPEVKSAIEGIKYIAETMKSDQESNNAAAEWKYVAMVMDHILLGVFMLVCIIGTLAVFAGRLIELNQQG

| Substance | Binding affinity [Ru] |
| --- | --- |
| 6mer-2-601 (KNSHKK) | 25 |
| 6mer-2-602 (RNTPKR) | 24 |
| 6mer-2-603 (KFHARR) | 32 |
| 6mer-2-604 (KEPIRK) | 16 |
| 6mer-2-605 (KNCGKK) | 17 |
| 6mer-2-606 (RKPFRR) | 15 |
| 6mer-2-607 (KKWVKR) | 31 |
| 6mer-2-608 (RCNHKK) | 32 |
| 6mer-2-609 (RDSDRR) | 24 |
| 6mer-2-610 (RKNPKR) | 32 |
| 6mer-2-611 (RIKMRR) | 22 |
| 6mer-2-612 (RDCVRK) | 17 |
| 6mer-2-613 (KAANRR) | 18 |
| 6mer-2-614 (KAWIRR) | 19 |
| 6mer-2-615 (KDNGRK) | 27 |
| 6mer-2-616 (REPHRK) | 26 |
| 6mer-2-617 (RCNGRR) | 32 |
| 6mer-2-618 (KHHKKR) | 12 |
| 6mer-2-619 (RPPDRR) | 26 |
| 6mer-2-620 (RHTGRR) | 33 |
| 6mer-2-621 (RHEPKR) | 32 |
| 6mer-2-622 (RYTNKR) | 13 |
| 6mer-2-623 (KHAHRR) | 13 |

same assay, conditions: SPR, Resonance Units; peptides tested at 10 μM; 6mer-2 Top sequence

| Substance | Binding affinity [Ru] |
| --- | --- |
| 6mer-2-507 (RGICKR) | 145 |
| 6mer-2-508 (RVFLKK) | 121 |
| 6mer-2-509 (RGFYRK) | 136 |
| 6mer-2-510 (KRVLKK) | 146 |
| 6mer-2-511 (RVFCRR) | 126 |
| 6mer-2-512 (RWFTRR) | 148 |
| 6mer-2-513 (RRLTRK) | 121 |
| 6mer-2-514 (KGLQKK) | 124 |
| 6mer-2-515 (RWYCRK) | 123 |
| 6mer-2-516 (RQQQKK) | 146 |
| 6mer-2-517 (KLRTKK) | 153 |
| 6mer-2-518 (KLVTKK) | 151 |
| 6mer-2-519 (KQIQRR) | 135 |
| 6mer-2-520 (KSYCKR) | 144 |
| 6mer-2-521 (KQYTRK) | 144 |
| 6mer-2-522 (RVVLRK) | 124 |
| 6mer-2-523 (RGRYKR) | 146 |
| 6mer-2-524 (RGIQKR) | 128 |
| 6mer-2-525 (KWVRKK) | 145 |
| 6mer-2-526 (RVLLRK) | 144 |
| 6mer-2-527 (RGQTRR) | 145 |
| 6mer-2-528 (KGFRKK) | 151 |
| 6mer-2-529 (KQQRKR) | 124 |
| 6mer-2-530 (RSYSKR) | 139 |

| Substance | Binding affinity [Ru] |
| --- | --- |
| 6mer-2-531 (KVIYKR) | 148 |
| 6mer-2-532 (KSITKR) | 147 |
| 6mer-2-533 (KRLLKR) | 142 |
| 6mer-2-534 (RVQLRR) | 139 |
| 6mer-2-535 (KLFCRR) | 133 |
| 6mer-2-536 (RWQRKK) | 125 |
| 6mer-2-537 (KVLCKR) | 153 |
| 6mer-2-538 (KQFCKK) | 125 |
| 6mer-2-539 (KWYTKK) | 127 |
| 6mer-2-540 (KRLTRR) | 142 |
| 6mer-2-541 (KGQCRK) | 126 |
| 6mer-2-542 (RQIYRR) | 148 |
| 6mer-2-543 (RRQYRR) | 144 |
| 6mer-2-544 (KVIQKR) | 147 |
| 6mer-2-545 (KLYCRK) | 125 |
| 6mer-2-546 (RVFTKK) | 127 |
| 6mer-2-547 (RWQCKR) | 135 |
| 6mer-2-548 (RLQCRR) | 142 |
| 6mer-2-549 (KQLCKK) | 142 |
| 6mer-2-550 (RSFTKK) | 148 |
| 6mer-2-551 (KWYTKR) | 141 |
| 6mer-2-552 (RGLLRR) | 148 |
| 6mer-2-553 (RSLQKK) | 124 |
| 6mer-2-554 (RWRCRR) | 121 |

| Substance | Binding affinity [Ru] |
| --- | --- |
| 6mer-2-555 (RSVSKK) | 154 |
| 6mer-2-556 (RSICKK) | 148 |
| 6mer-2-557 (KWVLRK) | 123 |
| 6mer-2-558 (KSVCKK) | 154 |
| 6mer-2-559 (KGQLRR) | 121 |
| 6mer-2-560 (RQYTRR) | 153 |
| 6mer-2-561 (RRVLKK) | 142 |
| 6mer-2-562 (RQQRKR) | 136 |
| 6mer-2-563 (KGYQKR) | 131 |
| 6mer-2-564 (KQVYRK) | 148 |
| 6mer-2-565 (KSRRRR) | 147 |
| 6mer-2-566 (KRLSKK) | 139 |
| 6mer-2-567 (KLYYRK) | 146 |
| 6mer-2-568 (KGFQKK) | 142 |
| 6mer-2-569 (RWQLRK) | 135 |
| 6mer-2-570 (RVYYKR) | 148 |
| 6mer-2-571 (RGYQRR) | 135 |
| 6mer-2-572 (KSQRRK) | 148 |
| 6mer-2-573 (KLYLRR) | 121 |
| 6mer-2-574 (KGVYRK) | 153 |
| 6mer-2-575 (RGYSRK) | 139 |
| 6mer-2-576 (KGVSRR) | 139 |
| 6mer-2-577 (KRVQRR) | 139 |
| 6mer-2-578 (RSVLRK) | 135 |

| Substance | Binding affinity [Ru] |
| --- | --- |
| 6mer-2-579 (RWQYRK) | 135 |
| 6mer-2-580 (KWQQRR) | 121 |
| 6mer-2-581 (RVQQKR) | 139 |
| 6mer-2-582 (RWQTRK) | 148 |
| 6mer-2-583 (KSVTKK) | 154 |
| 6mer-2-584 (KRLTRK) | 148 |
| 6mer-2-585 (RSFRRK) | 136 |
| 6mer-2-586 (RWLSRK) | 121 |
| 6mer-2-587 (KRISKR) | 148 |
| 6mer-2-588 (KWFYKK) | 149 |
| 6mer-2-589 (RWQQRK) | 153 |
| 6mer-2-590 (KGRLRK) | 148 |
| 6mer-2-591 (KGILRR) | 146 |
| 6mer-2-592 (RWVLRK) | 122 |
| 6mer-2-593 (RSQLKR) | 139 |
| 6mer-2-594 (RWYRRR) | 139 |
| 6mer-2-595 (KLRCKK) | 154 |
| 6mer-2-596 (KGIQKK) | 153 |
| 6mer-2-597 (KQFLRK) | 154 |
| 6mer-2-598 (KVFRRR) | 146 |
| 6mer-2-599 (RRRYRK) | 121 |
| 6mer-2-600 (RSQLKK) | 139 |
